From paper doi:10.1101/2025.06.11.659212 (bioRxiv, 2025)

Biological target: the molecule itself
Assay: cryo-EM structure

B1: cyanide dihydratase from Bacillus safensis strain PER-URP-08 (enzyme, UniProt P0DXY3 1-330, looked up)
chain: MTSIYPKFRAAAVQAAPVYLNLEATVEKSCELIDEAASNGAKLVAFPEAFLPGYPWFAFIGHPEYTRKFYHELYKNAVEIPSLAIQKISEAAKRNETYVCISCSEKDGGSLYLAQLWFNPNGDLIGKHRKMRASVAERLIWGDGSGSMMPVFQTDIGNLGGLMCWEHQVPLDLMAMNAQNEQVHVASWPGYFDDEISSRYYAIATQTFVLMTSSIYTEEMKEMICLTQEQRDYFETFKSGHTCIYGPDGEPISDMVPAETEGIAYAEIDVERVIDYKYYIDPAGHYSNQSLSMNFNQQPTPVVKQLYHQKNEVFTYEDIQYQHGILEEKV
- stoichiometry N: 18 monomers

B2: cyanide hydratase from Gloeocercospora sorghi (enzyme, UniProt P32964 1-368, looked up)
chain: MPINKYKAAVVTSEPVWENLEGGVVKTIEFINEAGKAGCKLIAFPEVWIPGYPYWMWKVNYLQSLPMLKAYRENSIAMDSSEMRRIRAAARDNQIYVSIGVSEIDHATLYLTQVLISPLGDVINHRRKIKPTHVEKLVYGDGSGDSFEPVTQTEIGRLGQLNCWENMNPFLKSLAVARGEQIHVAAWPVYPDLSKQVHPDPATNYADPASDLVTPAYAIETGTWVLAPFQRISVEGLKRHTPPGVEPETDATPYNGHARIFRPDGSLYAKPAVDFDGLMYVDIDLNESHLTKALADFAGHYMRPDLIRLLVDTRRKELVTEVGGGDNGGIQSYSTMARLGLDRPLEEEDYRQGTDAGETEKASSNGHA
- stoichiometry N: 24 monomers
